Test results: paper PMC4248446

Biological target: receptor for advanced glycation end products (RAGE) (human (endogenous in HPAEC)) (UniProt Q15109)
UniProt Q15109, sequence (Q15109 23-404): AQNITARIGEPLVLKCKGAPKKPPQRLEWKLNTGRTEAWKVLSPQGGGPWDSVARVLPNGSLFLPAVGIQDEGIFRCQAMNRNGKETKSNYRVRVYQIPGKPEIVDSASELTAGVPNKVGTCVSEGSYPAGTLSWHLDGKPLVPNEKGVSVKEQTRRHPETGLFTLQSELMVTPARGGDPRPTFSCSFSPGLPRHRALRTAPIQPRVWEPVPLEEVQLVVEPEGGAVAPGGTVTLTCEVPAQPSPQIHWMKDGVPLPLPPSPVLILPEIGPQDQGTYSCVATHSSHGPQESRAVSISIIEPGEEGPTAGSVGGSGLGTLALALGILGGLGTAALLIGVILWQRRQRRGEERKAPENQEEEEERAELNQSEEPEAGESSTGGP

ET-1 release from HPAECs induced by HMGB1 (40 ng/ml), ELISA of the culture supernatant, with anti-RAGE antibody (ab3611; Abcam; 1 μg/ml) co-treated: 349 pg/mL
Substance: recombinant high mobility group box-1 (HMGB1) (from UniProt P09429 1-215) (ligand)
